The chains are these.
B1: Latent membrane protein 1 (Epstein-Barr virus (strain B95-8) (HHV-4)), P03230 (parent)
chain: MEHDLERGPPGPRRPPRGPPLSSSLGLALLLLLLALLFWLYIVMSDWTGGALLVLYSFALMLIIIILIIFIFRRDLLCPLGALCILLLMITLLLIALWNLHGQALFLGIVLFIFGCLLVLGIWIYLLEMLWRLGATIWQLLAFFLAFFLDLILLIIALYLQQNWWTLLVDLLWLLLFLAILIWMYYHGQRHSDEHHHDDSLPHPQQATDDSGHESDSNSNEGRHHLLVSGAGDGPPLCSQNLGAPGGGPDNGPQDPDNTDDNGPQDPDNTDDNGPHDPLPQDPDNTDDNGPQDPDNTDDNGPHDPLPHSPSDSAGNDGGPPQLTEEVENKGGDQGPPLMTDGGGGHSHDSGHGGGDPHLPTLLLGSSGSGGDDDDPHGPVQLSYYD
partner: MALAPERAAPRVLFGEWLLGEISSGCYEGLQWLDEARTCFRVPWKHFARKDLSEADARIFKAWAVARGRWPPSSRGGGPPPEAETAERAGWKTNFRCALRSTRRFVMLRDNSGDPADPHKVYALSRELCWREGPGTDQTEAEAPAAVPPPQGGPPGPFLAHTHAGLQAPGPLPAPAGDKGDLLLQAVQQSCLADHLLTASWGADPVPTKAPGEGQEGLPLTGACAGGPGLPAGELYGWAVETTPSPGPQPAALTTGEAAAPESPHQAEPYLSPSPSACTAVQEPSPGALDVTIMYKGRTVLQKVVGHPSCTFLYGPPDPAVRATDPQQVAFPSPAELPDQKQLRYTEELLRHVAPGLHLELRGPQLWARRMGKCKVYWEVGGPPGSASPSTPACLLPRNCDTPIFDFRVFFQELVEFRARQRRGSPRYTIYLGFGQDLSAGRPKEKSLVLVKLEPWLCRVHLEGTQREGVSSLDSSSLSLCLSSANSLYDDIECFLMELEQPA

Variants of B1 are the subject of this assay. The settings on record: with IRF7, Q92985-1.
In the case of P376A;H377A;G378A;P379A;V380A;Q381A;L382A;S383A, the “effect of a mutation on the interaction” value is listed as “disrupting interaction”.

Values taken from IntAct's records for PubMed 19017798.
